From patent US20180353627A1, “RADIOLABELED DISINTEGRINS AS BRACHYTHERAPY AGENTS” (UNIVERSITY OF SOUTHERN CALIFORNIA, priority 2015, published 2018) come the findings set out here.

“Also recorded” adds a separate entry of the source.

The subject of one data set is C6 rat GBM cells. The data set can be described thus: Gamma camera biodistribution after intracranial injection, C6 rat GBM. It is filed as in vivo, rats. The conditions noted are these: given intracranially as ^131I-CN. Here is the method: A Gamma camera was used to determine biodistribution of ^131I-CN in rats after intracranial injection of C6 rat GBM cells, and tumors allowed to grow for 7 days. Two tumor-free rats were also administered ^131I-CN intracranially. Whole-body distribution of radioactivity was imaged at 0 and 24 hours after injection of ^131I-CN.
CN is localized to the brain in all animals at 0 hours. […] This retention was attributable to CN's specific binding to integrin αvβ3, which has been shown previously by us and others to be overexpressed in glioma cells, but not in normal brain tissue. Thus, CN delivered intratumorally binds to the expected integrins in GBM in vivo and accumulates specifically at the site of the tumor. Based on structural and functional similarities between VCN and CN, we anticipate identical findings with VCN for GBM localization.

A further data set has as its system GBM. Briefly: Survival study, intratumoral delivery via Alzet pump in GBM-bearing animals. It is filed as in vivo.
A short description of data set [1]: Immune response after intracranial injection. It is filed as in vivo, rodents. From the text:
(§1) All previous work was done with CN, the precursor of VCN. Applicants previously determined whether CN induces hemorrhage in healthy, tumor-free rats.

Data set [2] in a line: Hemorrhage after brain injection in healthy, tumor-free rats. It is filed as in vivo. The note with it: no difference to PBS-injected brains.
Source text: as §1

The target in a further data set is α5β1 (Homo sapiens, UniProt P05556+P08648). The data set can be described thus: Fluorescence polarization binding of FITC-labeled disintegrins to soluble integrin α5β1. The conditions noted are these: VCN with incorporated echistatin sequence. From the text:
FIG. 3 depicts amino acid sequences of this disclosure. Mass spectrometry and crystallographic data confirmed that CN (SEQ ID. NO. 1) is a homodimer with the 2 chains oriented in an antiparallel fashion and held together by 2 inter-chain disulfide bonds. […] Recombinant CN is SEQ ID NO. 2. VCN is SEQ ID NO. 3. Echistatin is SEQ ID NO. 4.
Further, ^131I-VCN retained essentially 100% radioiodine during dialysis against phosphate buffered saline, pH 7.4, for 15 days. […] Binding kinetics were calculated from the fluorescence anisotropy data generated by steady state binding of FITC-labeled disintegrins to either purified (αvβ3, αvβ5) or recombinant (α5β1) functional human integrins. The dissociation constants for interactions of either CN or VCN with soluble integrins were determined by Scatchard analysis using a non-linear curve fit.

A further data set concerns U87 GBM cells. The data set can be described thus: Intracranial U87 GBM tumor model, Alzet pump delivery to the brain. It is filed as in vivo. The conditions noted are these: 40 μg daily over 2 weeks via Alzet pump, U87 GBM in nude mice. The text has this: Finally, in an intracranial tumor model, U87 GBM cells were stereotactically implanted into nude mice. […] After 2 weeks the mice were euthanized and their brains removed. The average tumor size of animals treated with PBS was several times larger than animals treated with VCN.

Data set [3] can be described thus: Toxicology study, single i.v. escalating doses in rats. It is filed as in vivo. The conditions noted are these: single i.v. 3 mg/kg to 75 mg/kg, 14 days. How it is done: Rats were evaluated for signs of physical toxicity or stress and sacrificed after 14 days.
The subject of a further data set is platelet aggregation. Briefly: Inhibition of platelet aggregation (bioactivity after radioiodination). The conditions noted are these: radioiodinated VCN. It is filed as cell-based.

Chain of α5β1 (P08648 42-894 limits assumed): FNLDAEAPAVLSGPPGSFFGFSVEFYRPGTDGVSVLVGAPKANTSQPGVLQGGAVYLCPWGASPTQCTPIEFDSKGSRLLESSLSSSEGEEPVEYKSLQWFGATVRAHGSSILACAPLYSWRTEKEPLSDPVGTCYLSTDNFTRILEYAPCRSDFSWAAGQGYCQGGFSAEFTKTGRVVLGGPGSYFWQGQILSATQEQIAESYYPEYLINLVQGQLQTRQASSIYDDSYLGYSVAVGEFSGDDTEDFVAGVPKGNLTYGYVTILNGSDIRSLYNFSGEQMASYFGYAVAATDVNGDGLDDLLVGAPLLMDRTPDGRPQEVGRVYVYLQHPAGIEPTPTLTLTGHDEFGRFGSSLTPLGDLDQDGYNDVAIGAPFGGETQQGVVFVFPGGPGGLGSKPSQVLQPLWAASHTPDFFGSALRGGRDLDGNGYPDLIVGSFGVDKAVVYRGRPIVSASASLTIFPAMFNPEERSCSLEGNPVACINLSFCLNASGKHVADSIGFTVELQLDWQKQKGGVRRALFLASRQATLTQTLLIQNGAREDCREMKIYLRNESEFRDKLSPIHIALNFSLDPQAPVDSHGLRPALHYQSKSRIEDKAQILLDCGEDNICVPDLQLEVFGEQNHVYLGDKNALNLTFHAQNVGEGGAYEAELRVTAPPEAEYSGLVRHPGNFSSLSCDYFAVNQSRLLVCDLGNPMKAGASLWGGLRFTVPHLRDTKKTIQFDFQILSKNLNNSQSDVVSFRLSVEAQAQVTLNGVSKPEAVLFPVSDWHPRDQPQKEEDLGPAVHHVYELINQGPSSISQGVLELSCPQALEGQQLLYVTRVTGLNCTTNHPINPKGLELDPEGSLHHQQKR
Chain of α5β1 (P08648 895-995 partner limits assumed): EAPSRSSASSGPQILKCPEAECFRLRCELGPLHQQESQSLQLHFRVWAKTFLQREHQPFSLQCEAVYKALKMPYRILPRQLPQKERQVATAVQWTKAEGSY
Chain of α5β1 (P05556 21-728 limits assumed): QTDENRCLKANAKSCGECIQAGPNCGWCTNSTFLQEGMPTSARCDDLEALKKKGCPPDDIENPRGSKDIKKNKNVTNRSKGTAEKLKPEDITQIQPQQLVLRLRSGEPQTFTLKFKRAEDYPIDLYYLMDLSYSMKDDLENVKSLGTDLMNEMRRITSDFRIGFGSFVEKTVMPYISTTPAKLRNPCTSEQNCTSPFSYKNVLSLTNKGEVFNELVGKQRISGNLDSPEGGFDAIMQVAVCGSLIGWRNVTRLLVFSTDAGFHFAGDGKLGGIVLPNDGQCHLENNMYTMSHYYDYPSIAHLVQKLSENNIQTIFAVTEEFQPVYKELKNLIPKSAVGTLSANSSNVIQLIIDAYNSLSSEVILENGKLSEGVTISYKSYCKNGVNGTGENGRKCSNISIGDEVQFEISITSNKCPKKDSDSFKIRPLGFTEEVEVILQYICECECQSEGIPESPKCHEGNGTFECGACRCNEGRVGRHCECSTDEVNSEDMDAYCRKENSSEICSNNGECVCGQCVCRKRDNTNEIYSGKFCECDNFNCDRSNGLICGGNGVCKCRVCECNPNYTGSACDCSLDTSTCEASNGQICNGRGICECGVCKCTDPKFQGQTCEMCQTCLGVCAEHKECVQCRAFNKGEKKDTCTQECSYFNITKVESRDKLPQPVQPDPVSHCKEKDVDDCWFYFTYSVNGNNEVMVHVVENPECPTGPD

Regarding contortrostatin [CN], the “radioactivity in the brain at 24 hours” value is recorded as “the vast majority of radioactivity was still retained” with C6 rat GBM cells (tumor-bearing (C6) rats) and “disappeared from the brains of tumor-free rats” with C6 rat GBM cells (tumor-free rats). The survival result in the data set on GBM is “significantly (p<0.008) improved survival”. Also, the immune response entry in data set [1] (intracranial 50 μg, tumor-bearing (U87 GBM) or tumor-free rodents, 7 days) is listed as “no evidence of an immune response”; in data set [1] (intracranial 150 μg, after 7, 14 or 21 days), “no evidence of an immune response”. The hemorrhage entry in data set [2] is “minimal and localized to the injection needle track”.
With vicrostatin [VCN], the “improvement of binding affinity to integrin a5b1” value on α5β1 was “approximately 13 fold”. In addition, the “tumor growth (tumor size versus PBS)” value in the data set with U87 GBM cells is on record as “significant (p<0.001) attenuation of tumor growth”. Moreover, in data set [3], the adverse effects entry is given as “no adverse effects observed”; the “behavior, gross and microscopic examination” value is listed as “no changes in behavior, or in gross or microscopic examination”; the body weight gain entry was “gained weight indistinguishable from control”; the hematological parameters result is “no significant differences in hematological parameters”. Moreover, the “retention of bioactivity after radioiodination, assessed by inhibition of platelet aggregation” value in the data set with platelet aggregation is “full retention of bioactivity; also recorded: full retention of biological activity”.
